A short description of the series: soluble fraction after stress (log2 fold change); higher = more stays soluble; pooled small domains, quantitative proteomics. The conditions noted are these: stress: pH 4. Put shortly: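 Aggregation propensity here comes from the fold change in the soluble amount of each small protein domain after acid stress, measured in pooled custom libraries by high-throughput quantitative proteomics. The acid stress was pH 4. On the log2 scale, higher values mean more of the domain stayed soluble.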
With “HMDSINIDEETAKLGPNAPQIIDGIKKWGQGLVAKGVWSDEDFDEFKVFAATSSGINALNKIRKYY”, the “soluble fraction (log2)” value was -0.138.

As for “HMDSKYLRIFSTLIDEMEKMSPGEQLQSERELSQRFQVSPMTVRRALHKLSTEGYTSAIPGKGTFVRK”, the “soluble fraction (log2)” value is -0.0388.

“HMDSLELADEVGRVSEALQELRPHQREVLELSLVHGRSHQQISEKTGLALGTVKSHARRGLMRVREMLGV”: the “soluble fraction (log2)” value is -0.162.

As for “HMDSLIEYENERSLRRLINENLSDYERTVWWLYYAGADAAHIAEQTGRSKRSAENAITRVRRKLRALITQS”, the “soluble fraction (log2)” value was -0.188.

Take “HMDSNISVSEALEMVDKGSVKEIIVEGEKLYITNQDGKQYTSSKEVGVSLIELMKDSGIDPIKSDVNIIVK”: the “soluble fraction (log2)” value is -0.703.

In the case of “HMDSRVRHAVLTTLLGKRIVDDLVEKGELPGTPLVLATAPGLDRDLEQLIAQRVVTALLTTV”, the “soluble fraction (log2)” value turned out to be 0.192.

Take “HMDSSALEPIVDQIIADNPKQVEQFQAGKTKVLGFFVGQVMKQTDGTANPKQVNELVAARLKSA”: the “soluble fraction (log2)” value amounted to 0.0973.

For the sequence “HMDSTDSIIHYVRAHRSLEVKNLSFAEARFKKVVELEPNFARGWLGLGEVSILKNNFENASIYLDKALE”, the “soluble fraction (log2)” value was -0.505.

For the sequence “HMDSTLTNEIYNELYRAITHQELKPGQNLTLTMLKKQFNVSHTPIREALTRLSADGLVTYHPNKGMKVT”, the “soluble fraction (log2)” value came out at 0.222.

Turning to “HMDSTTHALALVRTLPRDQAEAVLLRVVADLDYADVAEIMGRSPGAVRVLVHRGLRRLEQELATRRT”, the “soluble fraction (log2)” value is -0.426.

For “HMDSVEYRVITGDDVNFRKGPSTDYASLGKLNKGYKVEYISETNSWSKVKYNGQTGYVYSKYVAQT”, the “soluble fraction (log2)” value was -0.262.

Take “HMDSVTVPDISGYSPKAAEDSINNAGLKINEQGLSGSGDGQVVERTSPSAGSKVKKGDSVTVYYSKA”: the “soluble fraction (log2)” value is 0.104.

For the sequence “HMDTDVFLMDLRGESRDYAEEVLINNNLEVKVIILPFSKRHYPGKVVEMRPSPFTKVKKGRIITLSVAGN”, the “soluble fraction (log2)” value is -1.11.

Consider “HMDTDWDVSGVTPDQYRLLFSVLGGLAGVKDVGLNPDGLRIIHTPEALPSIEKAFQANGLKLKRNVD”, for which the “soluble fraction (log2)” value is -0.899.

Regarding “HMDTETLIDKYQLNASEAAVLRFMDKNRDSLRDLGIRDVARASYVSTATIVNMAKKIGYSGYSELVFAYGS”, the “soluble fraction (log2)” value is -0.545.

For “HMDTFSVAIGTKTPDGSSVGEVKTISRDELLLLEDEVAEDPTKEIIFTGGTKDSAQAALDGWIDYNTNLAS”, the “soluble fraction (log2)” value was -0.716.

Regarding “HMDTFYKNLSKKIKTIREKLSFSQEALAKELGISRVAISQIENGDRKISAEEIAKLSRVFNVPTDILLN”, the “soluble fraction (log2)” value turned out to be 0.131.

As for “HMDTHDVQVPQEGQGLRLDLFLTDHIEGSRSFIQTIIKDGHVILNGKKAKANSRLNEGDYVVWSIPKPE”, the “soluble fraction (log2)” value was -0.37.

Regarding “HMDTHRLNYSDFVAEVQAQRVSKVVIDGYTIVGQRTNGETFETVRPALQDPKLVDDLLQNNVIIEGKQPE”, the “soluble fraction (log2)” value was -0.143.

In the case of “HMDTIVHFLSDGRRITVRIKRNARKNIILRPMAADAVSATIPPWLGRRQLSAWLSEREDLLLSVLSRAA”, the “soluble fraction (log2)” value is -0.736.

Consider “HMDTLESYVKRLEKLEGIADSFKGVSKAFALQAGREIRIMVESEKITDEEAVWLSKDIARRIENELEYPG”, for which the “soluble fraction (log2)” value is -0.468.

Take “HMDTNKMLIVNSISNGMKRLQELQDPQLAEIQKTFSGLDEQKATSAQLAQINNIINNRIAEIEG”: the “soluble fraction (log2)” value was 0.191.

For “HMDTNPKVIITMDGVNVRSSASTGSDILFIAEKGEEYELISESGDFYKILYEGNKEGYVASWLVETSE”, the “soluble fraction (log2)” value was -0.022.

With “HMDTNVKLLSPKQADFFASKLANNQNFSSKFAKVGEDMQPFIERISSELQQDISQVIVYMPYLLESGFKQ”, the “soluble fraction (log2)” value was -0.126.

For the sequence “HMDTNVPVPNVNGMTLNQAKAALEAAGFHVAVNWLGEKSDNNSVISYEPNGSAAKGTTITITVIAQPEQDG”, the “soluble fraction (log2)” value is -0.507.

With “HMDTPPGLSPEEQAIIDIITTRGDATINELTASIDIPTPRLMGMLVDMEFRSLIAAIPGGRYRI”, the “soluble fraction (log2)” value is -1.42.

In the case of “HMDTRQFWEQWVADEIRTFEHKDRKQLFGWFEGNKPKLGQMKKLGYGDLLTKVQTSWDEIYQQKE”, the “soluble fraction (log2)” value turned out to be 0.29.

Regarding “HMDTRSSARKALDAVNLLLETYGAKAYQHSYEIAGRRQQFQTPGDFMAFRSRLMAEVATEENAARINA”, the “soluble fraction (log2)” value is not below 0.43.

With “HMDTSKIDYSEFITMLDKGEVESVVLKSDTLTVTLKHGTGMAAQTKTVTLMEDLSELTKRLEKAGVKSFDK”, the “soluble fraction (log2)” value was determined as 0.176.

Turning to “HMDTVIAEVTASILNLRRSAGTSSDIIGKLNKGEKVSIIGGSGNWKNVRTSGGITGWVYHEYLSTY”, the “soluble fraction (log2)” value was -0.183.

With “HMDTYDSIDSILEERHLSRRKLAQAIGLPPSTFQSMMSRKSGMTLEVLMKIVSYLQVSPDAFW”, the “soluble fraction (log2)” value came to 0.061.

For the sequence “HMDVAWDAIKAKLKEVVDAEDKAHPLNDDQIVKALGESGITIARRTIAKYRDLLGIPPARKRKA”, the “soluble fraction (log2)” value is 0.0412.

Turning to “HMDVIGLEAAKSAAVKDAGISSPTFTKATLDRDDGRSLYEIEFISGSTKYEYDIDALTGSVLSKKTRALS”, the “soluble fraction (log2)” value was not below 0.43.

With “HMDVKPWERQEGESAKAFEAFTIYAGLGADRSLRAVAQQLGKSKTLMDRWSSTYSWVARAAEYDADLQRK”, the “soluble fraction (log2)” value was not below 0.43.

Take “HMDVLFGNRLRQLLDERNISQAHFADRIGVSRSRMNNYVAQRSEPDYATLIRIANTLDTSIDFLLGKS”: the “soluble fraction (log2)” value was -0.45.

Consider “HMDVLIQEIGKRLRIQRLAMGLTQEELAKRAGISLSTLKLMEQQGKGSLQRLAKVAVVLDLDGDLRGLF”, for which the “soluble fraction (log2)” value is -1.01.

On to “HMDVLKVFSHNVRRYRTQLGLSQETVAFRTGLHRTYISAVERGKRSISLDNIQKIADALEVETYLLFI”, for which the “soluble fraction (log2)” value is 0.22.

In the case of “HMDVLNPGDKAVTTASWLNFRTGPGMQNKVASVLARNTTVNIIEKSNEWYKVSLANGSTGYVHGMYLSKIT”, the “soluble fraction (log2)” value came to 0.105.

On to “HMDVLSQYGSRGEEVGKIQTRLKSWGYFSGEVTGYYGSQTTEAVKRFQQKHGLSATGVADRKTLELIGIS”, for which the “soluble fraction (log2)” value was 0.22.

On to “HMDVLTARENEVLQLLAKGMSNKEIASVLVITEKTVKAHVSSILSKLNLSDRTQAALYAVKNGI”, for which the “soluble fraction (log2)” value was -0.154.

On to “HMDVNMLVTGMLHKGEKSFVRVSFLRGKDWAEGIVPDAKIEKSQGFMEEEVARLEAYLLEQKSMIMEQA”, for which the “soluble fraction (log2)” value is -1.24.

“HMDVQGFVMDLDKPLDKEPIVEGFELKLEDSLTLVAAVNKDKSINSLFDELSKLGIKVKSMRNPP”: the “soluble fraction (log2)” value was -2.11.

Regarding “HMDVQNLTKKNQEFINIVTHQLLQSGKSDEDIQTILAKTLPEIIEKQKQGIPARSFLGAPTAWAAQFI”, the “soluble fraction (log2)” value was -0.0313.

On to “HMDVRLAKVYMLPANPYLRFIEFDDGTHGKFRAKPGKFGLGSVVKVKREDGDMYTLEGNYDGKDRL”, for which the “soluble fraction (log2)” value was determined as 0.152.

“HMDVSPVRLIREARGLSQVEVAKAAGLSRAAYQNIEVGKTVPRASTMVNIARALGVSMDDLLAPV”: the “soluble fraction (log2)” value turned out to be 0.0681.

As for “HMDVSVPDVTGTRLDRAQSLLEAQGLTLGKVEEFFHATEPAGIVYDQEPRPGTRVDEGTAISVSVSKGPEA”, the “soluble fraction (log2)” value worked out at 0.0997.

Consider “HMDWFDELKVSTDDSGRVTAPEESEFMFQTSNEKIFAGGDMVRGSDLVVTAIWEGRQAAEGIMDYLD”, for which the “soluble fraction (log2)” value is -0.726.

In the case of “HMDWPDDETIARIYALIKSDISSQARKVMELRFSEGMPFARIAAAMGISETAVYRHLSHALTVIRQKLN”, the “soluble fraction (log2)” value is -1.24.

Turning to “HMDWREMTAWMAELLKRRTGDDVETWNARVRESGAHDEASLRAWLTEQGVTGYAQTLLVMERFGYPDFF”, the “soluble fraction (log2)” value is -1.67.

As to “HMDYADISYKIFMNHIKNGQVERVELSGDPRIMGKLKDGTYFVTDNPRTENFKEFLLLNNVQVIETN”, the “soluble fraction (log2)” value is -0.772.

On to “HMDYEVPEELQQKFEEFPRLKEAFYQLTPGRQHQYLYYFSQAKRSQTRYNRIDKYMNAILQGKGMK”, for which the “soluble fraction (log2)” value was 0.167.

For “HMDYINALTTAGITDAKVIVTAPFDVSGTAALTGIYKAYEDITGSSLNEIAKAVGVEELITTGNLA”, the “soluble fraction (log2)” value turned out to be 0.2.

As for “HMDYKAELDNIIRDHLDMEGPLLPVLHAVMARFSYIPKDAIPIIARKLNLSSAEVSGVISFYHDFKKEK”, the “soluble fraction (log2)” value is -0.165.

For the sequence “HMDYKYYIVKEPMVVKNLELPVGTRIVYFNTSLFGDSESSRPLKEKNIYQIFFPDDKPLIWGGVPVSLIER”, the “soluble fraction (log2)” value was -0.546.

Take “HMDYNLTKNQKIVFNLLQNSGEPLKAYTILESLKREGLKSPLQVYRALDKLVELGIIHKIESQNSFI”: the “soluble fraction (log2)” value amounted to 0.0373.

As to “HMDYNMEEWSLTADQLKSGDTILILNLGKTATLLESTRGKKNVRVRMGNIKTIVETSSIRGNPHQ”, the “soluble fraction (log2)” value is -0.729.

For “HMDYPFQYFNYSHLRILGVPAQLIKAVRKAPTLDAIEQLSGLSEKTKLWLLELATEPKLEDVLFDPGR”, the “soluble fraction (log2)” value was -0.515.

For the sequence “HMDYRSMSGLQKAALLIMSVGEETAAKLFQLMHDDEIREISQTMANLGTVNATVIERLFVEFADAISS”, the “soluble fraction (log2)” value is -0.935.

“HMDYVKTLGETINVRVAASTDADIYKLLPGGEILNRVGYNEEWTKVMVDGSTFYVYSEYVIQTEPPA”: the “soluble fraction (log2)” value was -1.25.

As to “HMDYYSILGVDRNATGEDIKKAFKKKAMKYHPDRNPDNKESERKFKEAKEAYDTLSNPQKKSMYDQFGT”, the “soluble fraction (log2)” value was 0.141.

On to “HMEAEDLRDWVGARGIAYTALRPAGIAVVNGRRVDVVSEGAFVNRDDPVEVVRVEGRRIVVKP”, for which the “soluble fraction (log2)” value was -0.106.

For “HMEAGTEYVERAADYIRSHFQEDLTVSKLALYVGLNRSYLTTVFQNTLHVSPQQFLMRFRMERAAQLLD”, the “soluble fraction (log2)” value is -0.302.

For the sequence “HMEAGTVTVTHAAVYIRSGPGVSYPIAGKAAKNDTYTVLQKDGDWFQIRLPQGNTGWIAGWLVETGT”, the “soluble fraction (log2)” value is -0.133.

Turning to “HMEAISIYPNPTDNELHLSTSVQEVRIYNMYGIEVTRAANTDRLAVSHLPKGVYLVHADGAVLKMIK”, the “soluble fraction (log2)” value was -1.29.

“HMEAISSESIKKMIKSYVSGEDASKPLSDQQIADLLVKEGYMISRRTVAKYRDELGILSSSKRKR”: the “soluble fraction (log2)” value was not below 0.43.

Consider “HMEAKQMDAWIVSEAKRQGGKIEPAAAYELSRHTATDTSIASQEIAKLLMYVDFKRPVTREDVVELVSA”, for which the “soluble fraction (log2)” value is -0.0795.

Consider “HMEALPELTDRQRQVYEFIEARIAEWGYPPTIREIGQHLGIKSTNGVADHLKALKRKGYLQQ”, for which the “soluble fraction (log2)” value is -0.804.

With “HMEALTPREREVLTLMGQGRSNAEIATLLSIAPRTAKVHVQNILSKLGATNRTEAVSLAVRQGLIS”, the “soluble fraction (log2)” value is -0.18.

Source of the values: the domain aggregation screens of Martell et al. (2025).
